Our source for the protein stability index values is the supplement of paper PMC10567573.

The series can be described thus: protein stability index of a GFP-peptide fusion (GPS, HEK-293T) (PSI 1-6); higher = more stable.
Setting [1] is: treatment: DMSO, c terminus: a fixed tail appended.
[2] abbreviates: treatment: MLN4924 1 uM, 8 h, c terminus: a fixed tail appended.

± gives the standard deviation.
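Also: 24-mer peptide tiles fused after GFP, lentivirally expressed, FACS-sorted into six equal bins by GFP/DsRed ratio, decoded by Illumina sequencing, PSI is the read-weighted mean bin number.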

EAPASVVPFVRVKREREVDEDSEP [USP39] gave a protein stability index under setting [1] of 5.51 ± 0.17 and a protein stability index under setting [2] of 5.51 ± 0.2.

As to EARICRLLKHSNIVRLHDSISEEG [CAMK2B], the protein stability index worked out at 3.32 ± 0.41 under setting [1] and 3.46 ± 0.28 under setting [2].

EARKYASNLLKAGFIRHTVNKITF [DVL3]: the protein stability index reads like this: under setting [1], 2.31 ± 0.48; under setting [2], 2.16 ± 0.18.

EASRLNIERMKQIYQQLSRYRGLG [CRY1] had a protein stability index under setting [1] of 2.48 ± 0.26 and a protein stability index under setting [2] of 2.37 ± 0.3.

Consider ECGKRFLRSSDLYRHQRLHTGERP [ZNF449], for which the protein stability index is 3.08 ± 0.26 under setting [1] and 3.22 ± 0.24 under setting [2].

Sequence ECQLTHSHPACPLEFAYYFRPGHL [ZSWIM9] had a protein stability index under setting [1] of 2.57 ± 0.036 and a protein stability index under setting [2] of 2.59 ± 0.47.

Take EDGKRCVAVDYCASENHGCEHECV [MATN2]: the protein stability index was 4.92 ± 0.14 under setting [1] and 4.88 ± 0.7 under setting [2].

As for EDLATAYNNRGQIKYFRVDFYEAM [TTC32], the protein stability index under setting [1] came to 2.21 ± 0.17 and the protein stability index under setting [2] turned out to be 2.23 ± 0.32.

Turning to EDLTPEDDMPIGRNVLELNDVRQS [PTPRD], the protein stability index worked out at 5.13 ± 0.3 under setting [1] and 5.19 ± 0.14 under setting [2].

Regarding EEAAFPGRRVNAKMPVYSGSRPAC [ELOA2], the protein stability index is 4.01 ± 0.093 under setting [1] and 3.98 ± 0.27 under setting [2].

Regarding EEAGSQENHPQESKGQPRSQEESE [CHGB], the protein stability index is, setting by setting: under setting [1], 5.57 ± 0.25; under setting [2], 5.64 ± 0.17.

As to EEAVPEEEGPTVVLNPHPSLGYKE [CHGA], the protein stability index reads like this: under setting [1], 5.33 ± 0.28; under setting [2], 5.32 ± 0.38.

Turning to EEDNWDPELMEHTEAESEQEGSSG [TEX19], the protein stability index is, setting by setting: under setting [1], 5.7 ± 0.26; under setting [2], 5.65 ± 0.16.

As for EEEENRDSQQPGKRRKDSEEEAAS [FANCE], the protein stability index is, setting by setting: under setting [1], 5.78 ± 0.21; under setting [2], 5.73 ± 0.2.

For EEFLSAMQSARGPTPSSPLPSVPV [PLEKHN1], the protein stability index reads like this: under setting [1], 4.15 ± 0.27; under setting [2], 4.14 ± 0.19.

Regarding EEGDEQQRLLNTPRRKKLKSTSKY [GMCL1], the protein stability index is 4.75 ± 0.12 under setting [1] and 4.9 ± 0.39 under setting [2].

Consider EEKADVLARGPLNQTALHLAAAHG [RIPK4], for which, under setting [1], the protein stability index is 4.5 ± 0.17.

With EEPVPRERDRDPCGGSGGGGGGGG [LURAP1L], the protein stability index under setting [1] was found to be 5.69 ± 0.29 and the protein stability index under setting [2] worked out at 5.67 ± 0.22.

Consider EEQATKQFLEEINKWTVQYNVSPL [PTPN9], for which the protein stability index is, setting by setting: under setting [1], 2.96 ± 0.54; under setting [2], 3.15 ± 0.43.

Turning to EERKNEMTQVITRTQEEKLEHVRA [TRIM55], the protein stability index turned out to be 5.3 ± 0.21 under setting [1] and 5.54 ± 0.21 under setting [2].

Regarding EERSPSFGEDYYGPSRSRHRRRSR [CLK3], the protein stability index is, setting by setting: under setting [1], 5.32 ± 0.2; under setting [2], 5.46 ± 0.062.

EEVPEGMEEAAVASVVLPARELQE [BCL2L13]: the protein stability index was found to be 5.59 ± 0.2 under setting [1] and 5.41 ± 0.26 under setting [2].

On to EEVVYDLSIRGFNKETAAACVEK [TSN], for which the protein stability index amounted to 4.39 ± 0.14 (treatment: DMSO, c terminus: native) and 4.38 ± 0.27 (treatment: MLN4924 1 uM, 8 h, c terminus: native).

Turning to EFLELSPQKLKEVISLEKLNVGNE [GAN], the protein stability index under setting [1] was 3.44 ± 0.61 and the protein stability index under setting [2] came out at 3.09 ± 0.51.

For the sequence EGFADGFVKALDDLHKMNHVTPPN [JUNB], the protein stability index came to 4.12 ± 0.22 under setting [1] and 4.17 ± 0.3 under setting [2].

EGHCVIQVDVGDVNDNAPEVLLAS [PCDHGC5]: the protein stability index turned out to be 3.86 ± 0.35 under setting [1] and 3.96 ± 0.27 under setting [2].

Regarding EGPMEEEEAQPMAAPEGKRSLANG [EID1], the protein stability index reads like this: under setting [1], 5.66 ± 0.25; under setting [2], 5.58 ± 0.21.

Take EHGPSPGQDTFCQGKADGLYPNPR [CHIT1]: the protein stability index under setting [1] was 4.38 ± 0.26 and the protein stability index under setting [2] stood at 4.36 ± 0.53.

EHRRTARRTPPGQQRPHPRSHSRE [ELOA2]: the protein stability index was 5.47 ± 0.14 under setting [1] and 5.32 ± 0.39 under setting [2].
